{"source": "patent US11787839B2", "about": "“Targeting α2δ-1-bound glutamate receptors for treating diseases and disorders” (Board of Regents, The University of Texas System, priority 2017, dated 2023)", "key": {"anesthetized rats": {"test_system": "anesthetized rats", "assay": "PVN microinjection and recording of RSNA and ABP (Ang II)", "assay_type": "in vivo, rat", "settings": "peptides 100 μmol/L, 50 nl", "description": "PVN microinjection and recording of renal sympathetic nerve activity: Rats were anesthetized with a mixture of α-chloralose (60 mg/kg, i.p.) and urethane (800 mg/kg, i.p.). A retroperitoneal incision was made, and a branch of the left renal postganglionic sympathetic nerve was isolated under a surgical microscope. The renal sympathetic nerve was cut distally to ensure that afferent nerve activity was not recorded. The renal sympathetic nerve activity (RSNA), arterial blood pressure (ABP), and heart rate (HR) were recorded using a 1401-PLUS analog-to-digital converter and Spike2 system (Cambridge Electronic Design, Cambridge, UK). A microinjection pipette (tip diameter, 20-30 μm) was advanced into the PVN according to the following stereotactic coordinates: 1.6-2.0 mm caudal to the bregma, 0.5 mm lateral to the midline, and 7.0-7.5 mm ventral to the dura. The microinjection was done using a calibrated microinjection system (Nanoject II; Drummond Scientific) and monitored using a surgical microscope as described previously (Li and Pan, 2006, 2007; Qiao et al., 2017). Ang II (200 μmol/L, 50 nl) was microinjected into the PVN to observe the change in RSNA and ABP in the absence or presence of α2δ-1Tat peptide (100 μmol/L, 50 nl) or control peptide (100 μmol/L, 50 nl). The microinjections were separated by 10- to 15-min intervals to allow recovery of the response. To determine the location of the injection site and diffusion of the drugs in the PVN, 5% rhodamine-labeled fluorescent microspheres (0.04 μm; Molecular Probes) were included in the injection solution (Li and Pan, 2006, 2007; Qiao et al., 2017)."}, "[1]": {"target": "T1, presynaptic NMDARs of spinal dorsal horn neurons (Rattus norvegicus, UniProt P35439+Q00959+Q00960)", "T1 construct": "from tissue; host or cells: rat lumbar spinal cord slices (lamina II neurons) and synaptosomes made from them", "assay": "Spinal cord slice recordings, morphine-treated rats", "assay_type": "cell-based", "settings": "AP5 50 μM, gabapentin 100 μM, peptides 1 μM for 60 min", "description": "Spinal cord slice preparation and electrophysiological recordings: The lumbar spinal cord was rapidly removed through laminectomy from the animals anesthetized with isoflurane. […] The spinal cord tissue was then placed in a shallow groove formed in an agar block and glued onto the stage of a vibratome (Leica, Germany).\nAll signals were recorded using an amplifier (MultiClamp700B; Axon Instruments Inc., Union City, Calif.), filtered at 1-2 kHz, and digitized at 10 kHz."}, "[2]": {"target": "T2, NMDARs of RVLM-projecting PVN neurons (Rattus norvegicus, UniProt P35439+Q00959+Q00960)", "T2 construct": "from tissue; host or cells: rat hypothalamic slices containing the PVN (Sprague-Dawley, WKY, SHR) and synaptosomes made from them", "assay": "Recordings of RVLM-projecting PVN neurons in slices of WKY rats and SHRs", "assay_type": "cell-based"}, "[3]": {"target": "T3, NMDARs of hippocampal CA1 pyramidal neurons (Mus musculus, UniProt O08532+P35438)", "T3 construct": "from tissue; host or cells: mouse brain slices (hippocampal CA1, hypothalamic PVN, brain tissue membrane extracts)", "T3 sequence (O08532 25-956 limits assumed, other chains not shown)": "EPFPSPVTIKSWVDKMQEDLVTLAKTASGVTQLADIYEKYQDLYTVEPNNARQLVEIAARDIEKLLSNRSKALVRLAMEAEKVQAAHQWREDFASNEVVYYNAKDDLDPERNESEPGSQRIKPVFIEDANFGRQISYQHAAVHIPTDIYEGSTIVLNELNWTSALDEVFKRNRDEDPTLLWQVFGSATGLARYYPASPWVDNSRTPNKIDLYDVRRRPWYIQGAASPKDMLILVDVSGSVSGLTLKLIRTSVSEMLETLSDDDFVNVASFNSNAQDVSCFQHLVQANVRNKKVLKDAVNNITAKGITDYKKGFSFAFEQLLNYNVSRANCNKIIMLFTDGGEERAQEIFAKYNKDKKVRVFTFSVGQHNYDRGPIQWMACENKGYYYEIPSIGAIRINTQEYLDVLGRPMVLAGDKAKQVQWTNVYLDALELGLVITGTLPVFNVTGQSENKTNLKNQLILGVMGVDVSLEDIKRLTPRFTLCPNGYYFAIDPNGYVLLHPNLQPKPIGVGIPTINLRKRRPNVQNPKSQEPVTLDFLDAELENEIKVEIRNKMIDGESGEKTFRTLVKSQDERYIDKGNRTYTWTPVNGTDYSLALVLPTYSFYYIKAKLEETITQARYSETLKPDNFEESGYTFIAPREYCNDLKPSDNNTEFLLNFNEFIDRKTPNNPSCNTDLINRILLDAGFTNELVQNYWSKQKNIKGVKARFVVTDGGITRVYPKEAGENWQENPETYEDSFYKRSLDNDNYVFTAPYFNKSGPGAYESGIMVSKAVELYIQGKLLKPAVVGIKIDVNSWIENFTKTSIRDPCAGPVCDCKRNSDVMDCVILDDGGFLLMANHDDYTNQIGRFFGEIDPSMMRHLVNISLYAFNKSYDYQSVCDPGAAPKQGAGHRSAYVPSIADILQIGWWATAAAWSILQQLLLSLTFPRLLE", "assay": "Puff NMDAR currents of hippocampal CA1 neurons, oxygen-glucose deprivation (OGD)", "assay_type": "cell-based", "settings": "5 min OGD; gabapentin 30 or 100 μM, peptides 1 μM, 60 min", "description": "Brain slice preparation and recording. The tissues containing the hippocampus were sliced sagittally (300 μm thick) using a vibratome. […] NMDAR currents of pyramidal neurons in the hippocampal CA1 region were recorded by puff application of 100 μM NMDA directly to the recorded neuron at a holding potential of −60 mV."}, "[4]": {"target": "presynaptic NMDARs of spinal lamina II neurons (Rattus norvegicus, UniProt P35439+Q00959+Q00960)", "sequence (Q00959 20-1464 limits assumed, other chains not shown)": "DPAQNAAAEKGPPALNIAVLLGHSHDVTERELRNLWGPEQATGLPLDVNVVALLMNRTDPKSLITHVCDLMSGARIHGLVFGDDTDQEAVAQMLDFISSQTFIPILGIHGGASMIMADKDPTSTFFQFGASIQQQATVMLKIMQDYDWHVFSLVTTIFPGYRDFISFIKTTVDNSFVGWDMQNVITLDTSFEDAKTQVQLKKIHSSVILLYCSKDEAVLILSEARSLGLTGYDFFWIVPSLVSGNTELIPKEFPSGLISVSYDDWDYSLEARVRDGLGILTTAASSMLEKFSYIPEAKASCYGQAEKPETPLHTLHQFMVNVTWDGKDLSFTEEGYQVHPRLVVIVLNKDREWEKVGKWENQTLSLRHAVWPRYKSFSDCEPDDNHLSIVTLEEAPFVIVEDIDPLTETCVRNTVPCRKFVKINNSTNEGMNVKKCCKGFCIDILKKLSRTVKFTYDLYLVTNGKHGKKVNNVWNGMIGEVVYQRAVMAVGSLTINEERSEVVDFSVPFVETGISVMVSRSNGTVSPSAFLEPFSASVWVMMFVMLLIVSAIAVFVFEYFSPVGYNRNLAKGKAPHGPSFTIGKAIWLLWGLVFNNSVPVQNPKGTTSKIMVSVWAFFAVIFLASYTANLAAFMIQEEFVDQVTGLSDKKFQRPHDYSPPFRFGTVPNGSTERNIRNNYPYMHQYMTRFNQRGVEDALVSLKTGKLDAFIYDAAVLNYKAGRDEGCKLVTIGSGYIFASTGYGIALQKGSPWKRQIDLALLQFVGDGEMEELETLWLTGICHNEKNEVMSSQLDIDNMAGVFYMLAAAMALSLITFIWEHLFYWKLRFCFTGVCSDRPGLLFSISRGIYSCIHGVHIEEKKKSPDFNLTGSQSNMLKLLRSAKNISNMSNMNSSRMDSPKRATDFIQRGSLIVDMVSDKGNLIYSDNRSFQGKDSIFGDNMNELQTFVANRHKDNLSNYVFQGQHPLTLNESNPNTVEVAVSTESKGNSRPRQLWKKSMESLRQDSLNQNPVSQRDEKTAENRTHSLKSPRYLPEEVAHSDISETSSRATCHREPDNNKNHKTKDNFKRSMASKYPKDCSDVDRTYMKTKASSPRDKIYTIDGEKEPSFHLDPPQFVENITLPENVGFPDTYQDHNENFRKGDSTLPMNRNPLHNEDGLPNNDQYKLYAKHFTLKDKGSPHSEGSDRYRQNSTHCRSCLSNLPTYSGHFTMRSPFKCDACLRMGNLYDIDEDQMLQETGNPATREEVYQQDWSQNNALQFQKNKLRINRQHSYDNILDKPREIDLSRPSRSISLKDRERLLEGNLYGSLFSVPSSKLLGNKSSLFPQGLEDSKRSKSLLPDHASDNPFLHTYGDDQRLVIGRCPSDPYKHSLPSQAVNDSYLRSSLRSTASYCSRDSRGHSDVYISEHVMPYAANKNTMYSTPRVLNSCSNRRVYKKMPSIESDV", "sequence (Q00960 27-1482, other chains not shown)": "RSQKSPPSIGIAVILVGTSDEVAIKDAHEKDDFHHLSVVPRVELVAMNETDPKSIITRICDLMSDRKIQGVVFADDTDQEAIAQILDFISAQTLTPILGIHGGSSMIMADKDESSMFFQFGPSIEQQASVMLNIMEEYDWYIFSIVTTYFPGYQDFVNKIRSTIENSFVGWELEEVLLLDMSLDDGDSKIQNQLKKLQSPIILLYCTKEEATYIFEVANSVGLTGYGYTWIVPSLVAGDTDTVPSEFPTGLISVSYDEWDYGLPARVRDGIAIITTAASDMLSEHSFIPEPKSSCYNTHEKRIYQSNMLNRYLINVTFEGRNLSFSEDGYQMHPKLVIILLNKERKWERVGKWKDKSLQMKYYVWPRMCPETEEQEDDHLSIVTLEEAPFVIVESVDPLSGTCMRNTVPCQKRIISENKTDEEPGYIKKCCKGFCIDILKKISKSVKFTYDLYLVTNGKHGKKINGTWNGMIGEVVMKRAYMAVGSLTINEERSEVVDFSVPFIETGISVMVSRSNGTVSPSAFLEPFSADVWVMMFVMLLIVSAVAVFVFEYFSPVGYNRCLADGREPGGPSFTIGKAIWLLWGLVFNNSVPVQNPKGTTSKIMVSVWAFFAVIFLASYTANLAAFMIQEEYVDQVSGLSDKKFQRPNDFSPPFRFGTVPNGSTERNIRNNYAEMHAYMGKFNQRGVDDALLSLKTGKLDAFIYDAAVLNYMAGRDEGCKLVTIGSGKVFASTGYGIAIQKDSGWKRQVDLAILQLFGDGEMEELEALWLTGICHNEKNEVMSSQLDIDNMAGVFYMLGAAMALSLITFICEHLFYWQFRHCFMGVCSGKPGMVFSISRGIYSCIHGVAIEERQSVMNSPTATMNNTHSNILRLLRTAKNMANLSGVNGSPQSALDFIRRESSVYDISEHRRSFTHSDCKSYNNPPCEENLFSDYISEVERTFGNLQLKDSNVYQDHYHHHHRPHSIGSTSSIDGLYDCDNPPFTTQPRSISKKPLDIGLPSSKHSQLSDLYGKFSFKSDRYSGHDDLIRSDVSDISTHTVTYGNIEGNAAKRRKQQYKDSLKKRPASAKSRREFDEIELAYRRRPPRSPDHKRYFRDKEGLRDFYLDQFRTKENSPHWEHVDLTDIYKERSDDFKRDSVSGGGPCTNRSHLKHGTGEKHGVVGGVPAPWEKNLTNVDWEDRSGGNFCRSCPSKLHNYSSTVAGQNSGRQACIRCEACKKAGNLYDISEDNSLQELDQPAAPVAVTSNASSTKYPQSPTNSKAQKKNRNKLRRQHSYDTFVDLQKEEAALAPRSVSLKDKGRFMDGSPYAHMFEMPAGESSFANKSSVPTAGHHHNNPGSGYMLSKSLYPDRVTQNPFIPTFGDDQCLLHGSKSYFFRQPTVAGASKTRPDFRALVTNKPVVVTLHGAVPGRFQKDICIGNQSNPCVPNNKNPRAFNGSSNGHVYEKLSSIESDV"}, "[5]": {"target": "T4, α2δ-1 and NMDAR subunits in spinal cord synaptosomes (Rattus norvegicus, UniProt P35439+Q00959+Q00960)", "T4 construct": "from tissue; host or cells: rat lumbar spinal cord slices (lamina II neurons) and synaptosomes made from them", "assay": "Protein levels in spinal cord synaptosomes of treated slices (SNL, sham)", "assay_type": "cell-based", "settings": "slices treated 30 min", "description": "PSD-95, a known postsynaptic protein, was used as an internal control.\nSpinal cord synaptosome preparation: The spinal cord slices were pooled from 2 rats and were homogenized using glass-Teflon homogenizer in 10 volumes of ice-cold HEPES-buffered sucrose (0.32 M sucrose, 1 mM EGTA, and 4 mM HEPES at pH 7.4) containing the protease inhibitor cocktail (Sigma-Aldrich). The homogenate was centrifuged at 1,000×g for 10 min at 4° C. to remove the nuclei and large debris. […] The synaptosomal pellet was lysed via hypo-osmotic shock in 9 volumes of ice-cold HEPES-buffer with the protease inhibitor cocktail for 30 min. The lysate was centrifuged at 25,000×g for 20 min at 4° C. to obtain the synaptosomal membrane fraction, which was then dissolved in sodium dodecyl sulfate sample buffer at a final concentration of 0.25 μg/μl for immunoblotting. […] The α2δ-1Tat peptide and scrambled control peptide were synthesized by Bio Basic Inc. (Marham, Ontario, Canada) and validated by using liquid chromatography and mass spectrometry."}, "[6]": {"target": "T5, NMDARs of spinally projecting PVN neurons (Rattus norvegicus, UniProt P35439+Q00959+Q00960)", "T5 construct": "from tissue; host or cells: rat hypothalamic slices containing the PVN (Sprague-Dawley, WKY, SHR) and synaptosomes made from them", "assay": "Recordings of spinally projecting PVN neurons in rat brain slices (Ang II)", "assay_type": "cell-based", "settings": "losartan 2 μmol/L, pregabalin 20 μmol/L, peptides 1 μmol/L", "description": "Retrograde labeling of spinally projecting PVN neurons: Rats or mice were anesthetized with 2-3% isoflurane, and their spinal cords at the T1-T4 level were exposed through dorsal laminectomy. A fluorescent microsphere suspension (FluoSpheres, 0.04 μm; Molecular Probes, Invitrogen, Eugene, Oreg.) was pressure ejected (Nanoject II Microinjectors, Drummond Scientific Company, Broomall, Pa.) bilaterally into the IML region of the spinal cord in six separate 50-nl injections using a glass micropipette (tip diameter, 20-30 μm). […] The wound was closed with sutures after injection. Animals were returned to their cages for 4-7 days, which was sufficient time to permit the tracer to be retrogradely transported to the PVN. The animals were inspected daily for motor activity, signs of infection, and food and water intake.\nBrain slice preparation: Four to seven days after fluorescent tracer injection, the animals were anesthetized with isoflurane and rapidly decapitated. […] Coronal slices (thickness, 300 μm) containing the PVN were cut from the tissue block in the ice-cold aCSF. […] The brain slices were placed in a glass-bottom chamber and continuously perfused with aCSF at 3.0 ml/min at 34° C. maintained by an inline solution heater and temperature controller.\nThe labeled PVN neurons were briefly identified with the aid of epifluorescence illumination, and whole-cell recordings from labeled PVN neurons were performed under differential interference contrast optics on an upright microscope (BX50 WI; Olympus Optical, Tokyo, Japan). Recordings of postsynaptic currents began 5 min after the whole-cell access was established and the current reached a steady state.\nSignals were processed with an […] amplifier (Axon Instruments, Foster City, Calif.). A liquid junction potential of 15 mV (for the potassium gluconate pipette solution) was corrected during off-line analysis.\nPostsynaptic NMDAR currents were elicited by puff application of 100 μmol/L NMDA to the recorded neuron using a positive pressure system (4 p.s.i., 50 ms; Toohey Company, Fairfield, N.J.). The tip of the puff pipette was placed 150 μm from the recorded neuron. […] The NMDAR current data presented in the manuscript were the average of 3 consecutive currents elicited by repeated puff NMDA. The neuron was discarded if the current was not stable.\nAng II, losartan, and NMDA were obtained from Sigma (St. Louis, Mo.). The α2δ-1Tat peptide and scrambled control peptide were synthesized by Bio Basic Inc. (Markham, Ontario, Canada) and validated by liquid chromatography and mass spectrometry. […] All drugs were prepared immediately before the experiments and applied to the slice chamber. The brain slices were first pretreated with Ang II, losartan, α2δ-1Tat peptide, or control peptide in the slice incubation chamber before recording. For electrophysiological recording, the treatment agents were immediately removed and the brain slice transferred to a separate recording chamber."}, "[7]": {"settings": "paclitaxel-treated rats, AP5 50 μM, pregabalin 20 μM, peptides 1 μM"}, "[8]": {"settings": "vehicle-treated rats, AP5 50 μM, pregabalin 20 μM, peptides 1 μM"}}, "data": [{"sequence": "FGLGWQPWSLSFYLVWSGLILSVLHLIRSN (Control peptide) [Tat-fused scrambled peptide]", "values": [{"measurement": "ABP and RSNA responses to Ang II after prior peptide microinjection into the PVN", "setting": "anesthetized rats", "result": "not altered"}, {"measurement": "amplitude of monosynaptic evoked EPSCs", "setting": "[1]", "result": "did not affect"}, {"measurement": "puff NMDA currents of labelled PVN neurons", "setting": "[2]; SHRs", "result": "had no effect"}, {"measurement": "ratio of NMDAR-EPSCs to AMPAR-EPSCs", "setting": "[2]; SHRs", "result": "did not affect"}, {"measurement": "baseline frequency of mEPSCs of labelled PVN neurons", "setting": "[2]; SHRs, AP5 50 μmol L-1, gabapentin 100 μmol L-1, peptides 1 μmol L-1, 60 min", "result": "had no effect"}, {"measurement": "amplitude of evoked NMDAR-EPSCs of labelled PVN neurons", "setting": "[2]; SHRs, gabapentin 100 μmol L-1, peptides 1 μmol L-1, 60 min", "result": "did not affect"}, {"measurement": "amplitude of puff NMDA currents", "setting": "[2]; WKY rats", "result": "had no effect"}, {"measurement": "frequency or amplitude of mEPSCs of labelled PVN neurons", "setting": "[2]; WKY rats", "result": "had no effect"}, {"measurement": "ratio of NMDAR-EPSCs to AMPAR-EPSCs", "setting": "[2]; WKY rats", "result": "did not affect"}, {"measurement": "amplitude of evoked AMPAR-EPSCs of labelled PVN neurons", "setting": "[2]; WKY rats or SHRs", "result": "did not affect"}, {"measurement": "amplitude of evoked NMDAR-EPSCs of labelled PVN neurons", "setting": "[2]; WKY rats, gabapentin 100 μmol L-1, peptides 1 μmol L-1, 60 min", "result": "did not affect"}, {"measurement": "OGD-induced increase in the puff NMDAR currents", "setting": "[3]", "result": "did not alter"}, {"measurement": "increased amplitude of evoked monosynaptic EPSCs", "setting": "[4]; [7]", "result": "did not significantly alter"}, {"measurement": "increased frequency of mEPSCs of lamina II neurons", "setting": "[4]; [7]", "result": "did not affect"}, {"measurement": "PPR of evoked EPSCs", "setting": "[4]; vehicle-treated rats", "result": "had no effect"}, {"measurement": "amplitude of evoked monosynaptic EPSCs", "setting": "[4]; [8]", "result": "did not significantly alter"}, {"measurement": "frequency of mEPSCs of lamina II neurons", "setting": "[4]; [8]", "result": "did not affect"}, {"measurement": "increased protein levels of GluN1, GluN2A, GluN2B and α2δ-1 in spinal cord synaptosomes", "setting": "[5]; SNL rats", "result": "had no such effects"}, {"measurement": "protein levels of GluN1, GluN2A, GluN2B and α2δ-1 in spinal cord synaptosomes", "setting": "[5]; sham rats", "result": "had no such effects"}, {"measurement": "effect of Ang II on mEPSC frequency in pretreated slices", "setting": "[6]", "result": "did not affect"}, {"measurement": "effect of Ang II on puff NMDA currents in pretreated slices", "setting": "[6]; 30 min", "result": "significantly increased"}]}]}
